Consider 1 molecule from article PMC10125973, “A small secreted protein NICOL regulates lumicrine-mediated sperm maturation and male fertility” (Nature Communications, 2023).

For this test, the target named is T1, neural epidermal growth factor-like like 2 (NELL2), C-terminally 6xHis-tagged recombinant (UniProt Q61220 25-819).
T1 construct: NELL2, secreted protein; also called purified recombinant NELL2; source: human 293-F cells, transiently expressed, purified from conditioned medium (ammonium sulphate, Ni-NTA, PD-10)
T1 sequence (looked up): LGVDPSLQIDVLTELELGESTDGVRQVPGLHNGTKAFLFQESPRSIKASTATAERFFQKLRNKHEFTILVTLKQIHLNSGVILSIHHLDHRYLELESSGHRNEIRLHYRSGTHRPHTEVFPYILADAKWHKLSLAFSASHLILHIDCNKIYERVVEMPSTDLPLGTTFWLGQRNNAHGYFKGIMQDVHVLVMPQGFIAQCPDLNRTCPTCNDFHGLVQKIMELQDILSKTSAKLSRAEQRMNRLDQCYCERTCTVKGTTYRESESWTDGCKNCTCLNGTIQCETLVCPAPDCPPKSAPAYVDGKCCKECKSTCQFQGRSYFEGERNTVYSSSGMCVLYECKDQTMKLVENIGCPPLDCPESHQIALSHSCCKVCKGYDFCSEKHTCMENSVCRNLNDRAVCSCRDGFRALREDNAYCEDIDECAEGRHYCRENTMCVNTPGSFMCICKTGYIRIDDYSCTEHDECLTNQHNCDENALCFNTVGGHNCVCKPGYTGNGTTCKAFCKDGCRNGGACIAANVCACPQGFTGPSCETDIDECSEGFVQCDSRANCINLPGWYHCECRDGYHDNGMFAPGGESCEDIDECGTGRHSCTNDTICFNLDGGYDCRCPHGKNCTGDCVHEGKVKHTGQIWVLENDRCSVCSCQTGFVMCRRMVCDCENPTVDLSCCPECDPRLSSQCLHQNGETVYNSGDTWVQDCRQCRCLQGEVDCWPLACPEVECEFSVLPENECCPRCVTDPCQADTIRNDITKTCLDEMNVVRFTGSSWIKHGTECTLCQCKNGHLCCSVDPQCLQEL
Description: SPR; purified NELL2 immobilised on series S sensor chip CM5; purified NICOL in PBS as analyte; Biacore T200. Particulars: both partners purified. On the technique in general: Surface plasmon resonance follows binding to a sensor surface in real time, without labels.

B1: NELL2-interacting cofactor for lumicrine signalling (NICOL), 6xHis-tagged recombinant (natural protein, mouse, UniProt Q3UR78 29-90, looked up)
chain: EPATGSAVPAQSRPCVDCHAFEFMQRALQDLRKTAYSLDARTETLLLQAERRALCACWPAGR
notes: mouse NICOL (predicted gene Gm1673, ortholog of human C4orf48), small secreted protein; cDNA encoding mouse NICOL followed by 6xHis; purified from conditioned medium, so without its signal peptide; also called purified recombinant NICOL protein; source: human 293-F cells, transiently expressed, purified from conditioned medium (ammonium sulphate, Ni-NTA, PD-10)
As a reminder, the Kd is the free concentration of one partner at which half of the binding sites on the other are occupied at equilibrium, for simple one-to-one binding. In general, koff refers to the first-order rate constant of dissociation. By kon is commonly meant a measure of how fast the partners come together. Regarding B1, the Kd was 87 nM, the koff turned out to be 0.0062 s⁻¹ and the kon came out at 72000 M⁻¹ s⁻¹.
